Laboratory results taken from patent US20230055411A1 (UNIVERSIT DE BRETAGNE OCCIDENTALE UBO, published 2023).

Columns and labels:
[1] = molecular target: T1, recombinant STIM1 EF/SAM peptide (STIM1 aa 58 to 201) (human, UniProt Q13586 58-201); experiment: Octet, 1 to 1 fitting model, EF-SAM peptide at 133,5 nM; column kdis(1/S) [table row 133,5]
T1 construct: also called STIM1 EF/Hand peptide; soluble recombinant protein corresponding to the STIM1 EF-Hand domain
Description: (§1) FIG. 10 represents the determination of the anti-STIM1 mAb clone B-Y12 affinity. […] High affinity interaction is characterized by a low K, a fast recognizing (high kon) and a stable formation of complexes (low kdis). kdis: dissociation rate constant. kon: complex formation rate.
(§2) Affinity constants (Kon, Kdis) were calculated.

[2] = molecular target: T1, recombinant STIM1 EF/SAM peptide (STIM1 …); experiment: Octet, 1 to 1 fitting model, EF-SAM peptide at 133,5 nM [table row 133,5]
Description: as §1, §2

peptide 2A = molecular target: T2, peptide 2A (biotinylated in the ELISA of Figure 3 panel A); experiment: ELISA, biotinylated peptide 2A at 100 ng/well, B-Y12 in 1/10 steps
T2 construct: also called STIM1 aa 62 to 95
Description: (§3) FIG. 3 illustrated the validation by Elisa of the monoclonal anti-STIM1 antibody clone B-Y12. […] Anti-STIM1 mAb clone B-Y12 mAb (10 μg/ml) was diluted to 1/10 and antigens STIM1 biotinylated peptides used at concentrations of 50 ng/well for peptides 1A and 1B and 100 ng/well for peptide 2A and 10 ng/well for peptide 2B). Panel B: Specificity of the B-Y12 antibody for STIM1 is confirmed by ELISA using the peptide 1A and a recombinant STIM1 EF/SAM peptide (1 μg/mL). B-Y12 mAb used at 100 μg/mL diluted to 1/10. Panel C: Specificity for the B-Y12 antibody for the peptide 1A over the other peptides (1A, 1B, 2A, 2B, C2, C3, C4, C5, C6, C7 and C8. Peptides are used at a concentration of 1 μg/mL. Histograms represents mean optical density (OD) measured using an Elisa approach.

[3] = molecular target: T1, recombinant STIM1 EF/SAM peptide (STIM1 …); experiment: Octet, 1 to 1 fitting model, EF-SAM peptide at 88,8 nM; column kdis(1/S) [table row 88,8]
Description: as §1, §2

[4] = molecular target: T1, recombinant STIM1 EF/SAM peptide (STIM1 …); experiment: Octet, 1 to 1 fitting model, EF-SAM peptide at 88,8 nM [table row 88,8]
Description: as §1, §2

[5] = molecular target: T1, recombinant STIM1 EF/SAM peptide (STIM1 …); experiment: Octet, 1 to 1 fitting model, EF-SAM peptide at 200 nM; column kdis(1/S) [table row 200]
Description: as §1, §2

[6] = molecular target: T3, STIM1 peptide 1A (STIM1 amino acids 128 to 168) (human, biotinylated in the ELISA of FIG. 3A (position not given)); experiment: ELISA, Peptide 1A (aa 128-168) coated at 1 µg/mL, B-Y12 titrated
T3 construct: Immunization peptide from the SAM domain of STIM1
Description: as §3

peptide 2B = molecular target: T4, peptide 2B (biotinylated in the ELISA of Figure 3 panel A); experiment: ELISA, biotinylated peptide 2B at 10 ng/well, B-Y12 in 1/10 steps
T4 construct: also called STIM1 aa 97 to 127
Description: as §3

[7] = molecular target: T5, STIM1 protein, mouse (plasma membrane STIM1 on spleen B and T cells of MRL/Lpr and C57Bl/6 mice) (mouse, UniProt P70302 23-685); experiment: direct flow cytometry with PE coupled B-Y12, spleen B cells of MRL/Lpr mice (n=4) [B cells]
T5 construct: whole, on cells; also called mSTIM1 (mouse)

[8] = molecular target: T1, recombinant STIM1 EF/SAM peptide (STIM1 …); experiment: Octet, 1 to 1 fitting model, EF-SAM peptide at 200 nM [table row 200]
Description: as §1, §2

[9] = molecular target: T1, recombinant STIM1 EF/SAM peptide (STIM1 …); experiment: Octet (BLI), 1 to 1 fitting model, EF-SAM peptide at 200, 133.5 and 88.9 nM
Description: as §1, §2

peptide 1B = molecular target: T6, peptide 1B (biotinylated in the ELISA of Figure 3 panel A); experiment: ELISA, biotinylated peptide 1B at 50 ng/well, B-Y12 in 1/10 steps
T6 construct: also called STIM1 aa 169 to 197
Description: as §3

T1 sequence (Q13586 58-201): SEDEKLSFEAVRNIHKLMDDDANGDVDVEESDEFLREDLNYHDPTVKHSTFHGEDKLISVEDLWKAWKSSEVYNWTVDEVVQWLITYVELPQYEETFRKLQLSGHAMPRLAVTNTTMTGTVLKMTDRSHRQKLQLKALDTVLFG
T4 sequence (peptide, as listed by the source): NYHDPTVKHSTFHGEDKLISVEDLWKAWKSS
T3 sequence (peptide, as listed by the source): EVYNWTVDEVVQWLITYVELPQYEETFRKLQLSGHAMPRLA
T6 sequence (peptide, as listed by the source): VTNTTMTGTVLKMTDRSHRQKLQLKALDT
T2 sequence (peptide, as listed by the source): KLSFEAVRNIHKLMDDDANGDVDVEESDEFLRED
T5 sequence (P70302 23-685): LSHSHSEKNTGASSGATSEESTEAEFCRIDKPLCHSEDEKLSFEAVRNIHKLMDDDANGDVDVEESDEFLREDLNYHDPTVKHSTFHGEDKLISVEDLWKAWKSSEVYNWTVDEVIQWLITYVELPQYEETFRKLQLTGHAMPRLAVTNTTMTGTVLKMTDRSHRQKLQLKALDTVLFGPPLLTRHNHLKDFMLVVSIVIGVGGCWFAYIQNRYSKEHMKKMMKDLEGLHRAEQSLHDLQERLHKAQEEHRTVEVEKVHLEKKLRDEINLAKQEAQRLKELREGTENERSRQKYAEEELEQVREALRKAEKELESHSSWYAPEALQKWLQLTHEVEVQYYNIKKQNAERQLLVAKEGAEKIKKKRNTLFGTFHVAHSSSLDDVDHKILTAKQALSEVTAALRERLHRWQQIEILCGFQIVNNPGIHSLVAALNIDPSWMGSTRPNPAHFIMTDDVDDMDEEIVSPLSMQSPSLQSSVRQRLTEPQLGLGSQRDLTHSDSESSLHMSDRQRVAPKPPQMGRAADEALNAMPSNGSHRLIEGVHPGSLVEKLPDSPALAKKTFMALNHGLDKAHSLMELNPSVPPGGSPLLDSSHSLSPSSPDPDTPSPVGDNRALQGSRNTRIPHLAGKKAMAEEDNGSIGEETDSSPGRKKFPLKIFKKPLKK

B1: monoclonal anti-STIM1 antibody clone B-Y12 (antibody, IgG2b, V domains shown)
VH: QVQLQQPGAELVKPGASVKLSCKASGYTFTSYWMHWVKLRPGQGFEWIGETNPRNGGTNYNEKFKRKATLTVDKSSSTAYMQLSSLTSEDSAVYYCTITKTVRATWYFDYWGQGTTLTVSS
VL: DVLMTQTPLSLPVSLGDQASISCRSSQSIVHSNGNTYLEWYLQKPGQSPKLLIYKVSNRFSGVPDRFSGSGSGTDFTLKISRVEAEDLGVYYCFQGSHVPYTFGGGTKLEIK
notes: In direct flow cytometry it was used coupled to phycoerythrin (PE); also called B-Y12 mAb; anti-STIM1 mAb clone B-Y12
Which results are given for B1?
koff [1]: 0.000322 s⁻¹; kon [2]: 23700 M⁻¹ s⁻¹; binding result (peptide 2A): no binding; koff [3]: 0.000354 s⁻¹; kon [4]: 18800 M⁻¹ s⁻¹; koff [5]: 0.0004 s⁻¹; EC50 (read off the curve) [6]: ~4 ng/mL; binding result (peptide 2B): no binding; binding result [7]: binds; kon [8]: 20000 M⁻¹ s⁻¹; Kd [9]: 15 nM; binding result (peptide 1B): no binding
